# Test results as given in paper PMC9482650, “Quantitative fragmentomics allow affinity mapping of interactomes” (Nature Communications, 2022).
# T1: PCLO, Q9Y6V0
# T1 sequence (Q9Y6V0 4491-4600, limits assumed, looked up): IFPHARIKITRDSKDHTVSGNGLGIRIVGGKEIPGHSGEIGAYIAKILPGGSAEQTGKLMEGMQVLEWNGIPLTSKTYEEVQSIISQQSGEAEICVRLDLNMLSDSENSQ
# T2: RHPN1, Q8TCX5
# T2 sequence (Q8TCX5 508-602, limits assumed, looked up): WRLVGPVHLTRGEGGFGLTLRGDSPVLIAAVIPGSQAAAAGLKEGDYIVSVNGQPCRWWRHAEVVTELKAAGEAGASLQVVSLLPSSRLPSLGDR
# T3: NHERF3_4, Q5T2W1
# T3 sequence (Q5T2W1 373-468, limits assumed, looked up): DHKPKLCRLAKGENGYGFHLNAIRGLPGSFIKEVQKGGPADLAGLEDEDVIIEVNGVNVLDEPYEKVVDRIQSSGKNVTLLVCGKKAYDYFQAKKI
# T4: MPDZ_5, O75970
# T4 sequence (O75970 695-796, limits assumed, looked up): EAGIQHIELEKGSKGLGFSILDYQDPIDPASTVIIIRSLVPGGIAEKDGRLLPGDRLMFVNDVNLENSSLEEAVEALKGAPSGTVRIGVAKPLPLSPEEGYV
# T5: LRRC7, Q96NW7
# T5 sequence (Q96NW7 1440-1537, limits assumed, looked up): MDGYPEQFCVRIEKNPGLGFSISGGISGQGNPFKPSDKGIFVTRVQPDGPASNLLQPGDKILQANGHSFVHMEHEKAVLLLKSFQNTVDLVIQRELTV
# T6: SNTA1, Q13424
# T6 sequence (Q13424 82-180, limits assumed, looked up): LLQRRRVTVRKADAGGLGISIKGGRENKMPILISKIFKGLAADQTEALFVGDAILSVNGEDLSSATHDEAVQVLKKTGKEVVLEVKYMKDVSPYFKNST
# T7: SYNJ2BP, P57105
# T7 sequence (P57105 8-110, limits assumed, looked up): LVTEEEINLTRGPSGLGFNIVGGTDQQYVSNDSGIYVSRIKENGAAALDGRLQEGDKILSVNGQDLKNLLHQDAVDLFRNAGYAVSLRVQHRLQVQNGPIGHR
# T8: NHERF3_3, Q5T2W1
# T8 sequence (Q5T2W1 238-333, limits assumed, looked up): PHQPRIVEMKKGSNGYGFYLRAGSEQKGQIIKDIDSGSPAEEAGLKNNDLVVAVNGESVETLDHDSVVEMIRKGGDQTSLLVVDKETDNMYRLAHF
# T9: GRIP1_7, Q9Y3R0
# T9 sequence (Q9Y3R0 999-1096, limits assumed, looked up): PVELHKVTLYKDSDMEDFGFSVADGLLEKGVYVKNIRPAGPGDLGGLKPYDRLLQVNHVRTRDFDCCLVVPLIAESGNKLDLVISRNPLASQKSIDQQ
# T10: GRIP1_3, Q9Y3R0
# T10 sequence (Q9Y3R0 247-346, limits assumed, looked up): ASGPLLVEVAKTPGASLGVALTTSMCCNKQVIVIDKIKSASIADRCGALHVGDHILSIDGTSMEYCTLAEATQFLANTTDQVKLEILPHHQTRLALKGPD
# T11: TX1BP3, O14907
# T11 sequence (O14907 10-122, limits assumed, looked up): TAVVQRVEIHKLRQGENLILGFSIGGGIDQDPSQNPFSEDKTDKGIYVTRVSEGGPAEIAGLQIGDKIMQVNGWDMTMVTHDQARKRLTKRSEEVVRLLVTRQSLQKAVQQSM
# T12: MPP7, Q5T2T1
# T12 sequence (Q5T2T1 134-230, limits assumed, looked up): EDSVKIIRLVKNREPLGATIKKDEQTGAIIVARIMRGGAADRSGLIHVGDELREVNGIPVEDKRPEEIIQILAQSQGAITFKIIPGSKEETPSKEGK
# Biological target: T1, PCLO, Q9Y6V0
# Experiment: holdup assay
# Design: key: below the threshold = too weak to quantify, mostly under pKd 3.1 to 4
# Conditions: plain residues with an end cap or a label only (N-terminal biotin on a linker: ado-ado)
row,Binder,pKd
1,"TASPAKETSF [SLC2A7, Q6PXP3]",below the threshold

# Biological target: GRID2IP_2, A4D2P6
# Experiment: holdup assay
# Design: key: below the threshold = too weak to quantify, mostly under pKd 3.1 to 4
# Conditions: plain residues with an end cap or a label only (N-terminal biotin on a linker: ado-ado)
# Chain of GRID2IP_2, A4D2P6 (A4D2P6 272-370): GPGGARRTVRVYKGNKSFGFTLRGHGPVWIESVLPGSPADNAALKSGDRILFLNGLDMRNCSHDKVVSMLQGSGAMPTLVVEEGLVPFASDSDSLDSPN
row,Binder,pKd
1,"TASPAKETSF [SLC2A7, Q6PXP3]",below the threshold

# Biological target: MAGI2_3, Q86UL8
# Experiment: holdup assay
# Design: key: below the threshold = too weak to quantify, mostly under pKd 3.1 to 4
# Conditions: plain residues with an end cap or a label only (N-terminal biotin on a linker: ado-ado)
# Chain of MAGI2_3, Q86UL8 (Q86UL8 600-682): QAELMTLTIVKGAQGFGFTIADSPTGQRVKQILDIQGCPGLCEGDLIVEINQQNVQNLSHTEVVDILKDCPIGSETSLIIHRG
row,Binder,pKd
1,"TASPAKETSF [SLC2A7, Q6PXP3]",below the threshold

# Biological target: MAGI2_4, Q86UL8
# Experiment: holdup assay
# Design: key: below the threshold = too weak to quantify, mostly under pKd 3.1 to 4
# Conditions: plain residues with an end cap or a label only (N-terminal biotin on a linker: ado-ado)
# Chain of MAGI2_4, Q86UL8 (Q86UL8 772-865): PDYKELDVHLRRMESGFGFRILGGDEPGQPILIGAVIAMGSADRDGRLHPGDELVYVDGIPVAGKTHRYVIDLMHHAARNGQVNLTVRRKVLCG
row,Binder,pKd
1,"TASPAKETSF [SLC2A7, Q6PXP3]",3.52

# Biological target: PDZRN4_1, Q6ZMN7
# Experiment: holdup assay
# Design: key: below the threshold = too weak to quantify, mostly under pKd 3.1 to 4
# Conditions: plain residues with an end cap or a label only (N-terminal biotin on a linker: ado-ado)
# Chain of PDZRN4_1, Q6ZMN7 (Q6ZMN7 213-318): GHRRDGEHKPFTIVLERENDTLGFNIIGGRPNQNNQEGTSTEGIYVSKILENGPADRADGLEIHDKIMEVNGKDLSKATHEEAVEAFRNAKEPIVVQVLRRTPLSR
row,Binder,pKd
1,"TASPAKETSF [SLC2A7, Q6PXP3]",below the threshold

# Biological target: T2, RHPN1, Q8TCX5
# Experiment: holdup assay
# Design: key: below the threshold = too weak to quantify, mostly under pKd 3.1 to 4
# Conditions: plain residues with an end cap or a label only (N-terminal biotin on a linker: ado-ado)
row,Binder,pKd
1,"TASPAKETSF [SLC2A7, Q6PXP3]",3.97

# Biological target: DLG2_3, Q15700
# Experiment: holdup assay
# Design: key: below the threshold = too weak to quantify, mostly under pKd 3.1 to 4
# Conditions: plain residues with an end cap or a label only (N-terminal biotin on a linker: ado-ado)
row,Binder,pKd
1,"TASPAKETSF [SLC2A7, Q6PXP3]",3.88

# Biological target: T3, NHERF3_4, Q5T2W1
# Experiment: holdup assay
# Design: key: below the threshold = too weak to quantify, mostly under pKd 3.1 to 4
# Conditions: plain residues with an end cap or a label only (N-terminal biotin on a linker: ado-ado)
row,Binder,pKd
1,"TASPAKETSF [SLC2A7, Q6PXP3]",below the threshold

# Biological target: T4, MPDZ_5, O75970
# Experiment: holdup assay
# Design: key: below the threshold = too weak to quantify, mostly under pKd 3.1 to 4
# Conditions: plain residues with an end cap or a label only (N-terminal biotin on a linker: ado-ado)
row,Binder,pKd
1,"TASPAKETSF [SLC2A7, Q6PXP3]",below the threshold

# Biological target: T5, LRRC7, Q96NW7
# Experiment: holdup assay
# Design: key: below the threshold = too weak to quantify, mostly under pKd 3.1 to 4
# Conditions: plain residues with an end cap or a label only (N-terminal biotin on a linker: ado-ado)
row,Binder,pKd
1,"TASPAKETSF [SLC2A7, Q6PXP3]",below the threshold

# Biological target: DLG5_1, Q8TDM6
# Experiment: holdup assay
# Design: key: below the threshold = too weak to quantify, mostly under pKd 3.1 to 4
# Conditions: plain residues with an end cap or a label only (N-terminal biotin on a linker: ado-ado)
# Chain of DLG5_1, Q8TDM6 (Q8TDM6 617-713): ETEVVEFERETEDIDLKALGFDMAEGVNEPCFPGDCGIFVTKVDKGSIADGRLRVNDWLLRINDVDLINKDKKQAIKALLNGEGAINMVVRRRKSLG
row,Binder,pKd
1,"TASPAKETSF [SLC2A7, Q6PXP3]",below the threshold

# Biological target: MAST1, Q9Y2H9
# Experiment: holdup assay
# Design: key: below the threshold = too weak to quantify, mostly under pKd 3.1 to 4
# Conditions: plain residues with an end cap or a label only (N-terminal biotin on a linker: ado-ado)
# Chain of MAST1, Q9Y2H9 (Q9Y2H9 962-1065): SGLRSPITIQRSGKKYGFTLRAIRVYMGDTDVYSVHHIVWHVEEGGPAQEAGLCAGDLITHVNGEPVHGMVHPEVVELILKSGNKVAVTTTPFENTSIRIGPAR
row,Binder,pKd
1,"TASPAKETSF [SLC2A7, Q6PXP3]",4.55

# Biological target: T6, SNTA1, Q13424
# Experiment: holdup assay
# Design: key: below the threshold = too weak to quantify, mostly under pKd 3.1 to 4
# Conditions: plain residues with an end cap or a label only (N-terminal biotin on a linker: ado-ado)
row,Binder,pKd
1,"TASPAKETSF [SLC2A7, Q6PXP3]",3.57

# Biological target: DLG1_2, Q12959
# Experiment: holdup assay
# Design: key: below the threshold = too weak to quantify, mostly under pKd 3.1 to 4
# Conditions: plain residues with an end cap or a label only (N-terminal biotin on a linker: ado-ado)
# Chain of DLG1_2, Q12959 (Q12959 314-412): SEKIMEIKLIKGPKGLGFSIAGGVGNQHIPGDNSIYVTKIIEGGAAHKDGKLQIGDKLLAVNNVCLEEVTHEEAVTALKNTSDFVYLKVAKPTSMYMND
row,Binder,pKd
1,"TASPAKETSF [SLC2A7, Q6PXP3]",4.5

# Biological target: T7, SYNJ2BP, P57105
# Experiment: holdup assay
# Design: key: below the threshold = too weak to quantify, mostly under pKd 3.1 to 4
# Conditions: plain residues with an end cap or a label only (N-terminal biotin on a linker: ado-ado)
row,Binder,pKd
1,"TASPAKETSF [SLC2A7, Q6PXP3]",below the threshold

# Biological target: LIMK2, P53671
# Experiment: holdup assay
# Design: key: below the threshold = too weak to quantify, mostly under pKd 3.1 to 4
# Conditions: plain residues with an end cap or a label only (N-terminal biotin on a linker: ado-ado)
# Chain of LIMK2, P53671 (P53671 143-248): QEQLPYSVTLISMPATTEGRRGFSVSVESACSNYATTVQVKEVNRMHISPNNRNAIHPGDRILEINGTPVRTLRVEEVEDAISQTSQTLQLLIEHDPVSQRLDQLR
row,Binder,pKd
1,"TASPAKETSF [SLC2A7, Q6PXP3]",below the threshold

# Biological target: T8, NHERF3_3, Q5T2W1
# Experiment: holdup assay
# Design: key: below the threshold = too weak to quantify, mostly under pKd 3.1 to 4
# Conditions: plain residues with an end cap or a label only (N-terminal biotin on a linker: ado-ado)
row,Binder,pKd
1,"TASPAKETSF [SLC2A7, Q6PXP3]",below the threshold

# Biological target: T9, GRIP1_7, Q9Y3R0
# Experiment: holdup assay
# Design: key: below the threshold = too weak to quantify, mostly under pKd 3.1 to 4
# Conditions: plain residues with an end cap or a label only (N-terminal biotin on a linker: ado-ado)
row,Binder,pKd
1,"TASPAKETSF [SLC2A7, Q6PXP3]",below the threshold

# Biological target: DLG2_2, Q15700
# Experiment: holdup assay
# Design: key: below the threshold = too weak to quantify, mostly under pKd 3.1 to 4
# Conditions: plain residues with an end cap or a label only (N-terminal biotin on a linker: ado-ado)
row,Binder,pKd
1,"TASPAKETSF [SLC2A7, Q6PXP3]",4.06

# Biological target: T10, GRIP1_3, Q9Y3R0
# Experiment: holdup assay
# Design: key: below the threshold = too weak to quantify, mostly under pKd 3.1 to 4
# Conditions: plain residues with an end cap or a label only (N-terminal biotin on a linker: ado-ado)
row,Binder,pKd
1,"TASPAKETSF [SLC2A7, Q6PXP3]",below the threshold

# Biological target: Inadl_5, Q8NI35
# Experiment: holdup assay
# Design: key: below the threshold = too weak to quantify, mostly under pKd 3.1 to 4
# Conditions: plain residues with an end cap or a label only (N-terminal biotin on a linker: ado-ado)
# Chain of Inadl_5, Q8NI35 (Q8NI35 673-780): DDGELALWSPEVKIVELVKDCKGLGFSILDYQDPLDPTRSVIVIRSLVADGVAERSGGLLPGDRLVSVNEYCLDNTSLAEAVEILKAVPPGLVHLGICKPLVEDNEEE
row,Binder,pKd
1,"TASPAKETSF [SLC2A7, Q6PXP3]",below the threshold

# Biological target: T11, TX1BP3, O14907
# Experiment: holdup assay
# Design: key: below the threshold = too weak to quantify, mostly under pKd 3.1 to 4
# Conditions: plain residues with an end cap or a label only (N-terminal biotin on a linker: ado-ado)
row,Binder,pKd
1,"TASPAKETSF [SLC2A7, Q6PXP3]",3.79

# Biological target: T12, MPP7, Q5T2T1
# Experiment: holdup assay
# Design: key: below the threshold = too weak to quantify, mostly under pKd 3.1 to 4
# Conditions: plain residues with an end cap or a label only (N-terminal biotin on a linker: ado-ado)
row,Binder,pKd
1,"TASPAKETSF [SLC2A7, Q6PXP3]",below the threshold

# Biological target: HTRA1, Q92743
# Experiment: holdup assay
# Design: key: below the threshold = too weak to quantify, mostly under pKd 3.1 to 4
# Conditions: plain residues with an end cap or a label only (N-terminal biotin on a linker: ado-ado)
# Chain of HTRA1, Q92743 (Q92743 360-477): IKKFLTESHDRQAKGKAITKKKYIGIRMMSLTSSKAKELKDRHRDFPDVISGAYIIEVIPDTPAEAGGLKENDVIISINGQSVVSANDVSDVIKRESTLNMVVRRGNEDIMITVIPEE
row,Binder,pKd
1,"TASPAKETSF [SLC2A7, Q6PXP3]",below the threshold

# Biological target: GRIP2_7, Q9C0E4
# Experiment: holdup assay
# Design: key: below the threshold = too weak to quantify, mostly under pKd 3.1 to 4
# Conditions: plain residues with an end cap or a label only (N-terminal biotin on a linker: ado-ado)
# Chain of GRIP2_7, Q9C0E4 (Q9C0E4 934-1023): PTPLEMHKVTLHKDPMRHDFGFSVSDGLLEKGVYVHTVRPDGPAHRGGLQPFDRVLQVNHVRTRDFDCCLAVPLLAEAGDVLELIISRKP
row,Binder,pKd
1,"TASPAKETSF [SLC2A7, Q6PXP3]",below the threshold
